Measured values reported in PMC3585277, “The C-Terminal Region Mesd Peptide Mimics Full-Length Mesd and Acts as an Inhibitor of Wnt/β-Catenin Signaling in Cancer Cells” (PLoS ONE, 2013).

Legend:
Wnt/β-catenin signaling [1] = assay: TOPFlash luciferase reporter assay, LRP5-transfected HEK293 cells; format: cell-based, human; settings: Wnt3A CM 5%, Rspo1 40 ng/ml, mMesd 2 µM, peptide at indicated concentrations, 24 h, normalized to β-galactosidase
Experimental: (§1) Cells were plated into 24-well plates. After overnight culture, the cells were transiently transfected with the TOPFlash or Super8XTOPFlash luciferase construct, β-galactosidase-expressing vector, and pcDNA3.1C-Myc-hLRP5, pCS-Myc-hLRP6 or control vector. After 24 h incubation, cells were treated with Mesd, Mesd peptide, Rspo1 and Wnt3A CM. Cells were then lysed 24 h later and both luciferase and β-galactosidase activities were determined. The luciferase activity was normalized to the β-galactosidase activity.

Wnt/β-catenin signaling [2] = assay: Super8XTOPFlash luciferase reporter assay, HS578T cells; format: cell-based, human; settings: 24 h treatment
Experimental: as §1

PC-3 cells [3] = assay: Cell proliferation assay (trypan blue exclusion), PC-3 cells; format: cell-based, human; settings: PC-3, RPMI-1640 2% FBS, 10 days; mMesd 2 µM, hMesd (160–197) 4 µM, control peptide 4 µM; n = 3
Experimental: (§2) Cells were seeded into 6-well plates at a density of 10000 cells/well. RPMI-1640 or DMEM medium containing 2% FBS was used as assay media. After 16 h incubation, the cells were treated with Mesd or its peptide for 10 days. Media were changed every other day. At the end of the experiment, cells were harvested and counted using the trypan blue exclusion assay.

PC-3 cells [4] = settings: cited from earlier work
Excerpt: (§3) Treatment of prostate cancer cells with Wnt3A CM or purified recombinant Wnt ...

PC-3 tumor = settings: cited from earlier work
Excerpt: as §3

Wnt/β-catenin signaling [5] = settings: cited from earlier work
Excerpt: as §3

Wnt/β-catenin signaling [6] = assay: TOPFlash luciferase reporter assay, LRP6-transfected HEK293 cells; format: cell-based, human; settings: Wnt3A CM 5%, Rspo1 40 ng/ml, mMesd 2 µM, peptide at indicated concentrations, 24 h, normalized to β-galactosidase
Experimental: as §1

HS578T cells [7] = assay: Cell viability, Cell Titer Glo Assay, HS578T cells; format: cell-based, human
Experimental: (§4) Cell viability was measured in 96-well plates by the Cell Titer Glo Assay (Promega), which is a luminescent assay that is an indicator of live cells as a function of metabolic activity and ATP content.

HS578T cells [8] = assay: Cell proliferation assay (trypan blue exclusion), HS578T cells; format: cell-based, human; settings: DMEM 2% FBS, 10 days, mMesd 2 µM, hMesd (160–197) 4 µM, control peptide 4 µM, n = 3
Experimental: as §2

PC-3 cells [9] = assay: Cell viability, Cell Titer Glo Assay, PC-3 cells; format: cell-based, human; settings: Mesd 2 µM or hMesd (160–197) 2 µM with Adriamycin 0.5 µM, 2 days after pre-treatment
Experimental: as §4

LRP6 phosphorylation = assay: Western blot of phosphorylated LRP6 in C2C12 cells; format: cell-based, mouse; settings: C2C12, Wnt3A CM 5%, 6 h; mMesd 0.5 µM, peptide at indicated concentrations
Experimental: (§5) Cells in 6-well plates were lysed in 0.5 ml of lysis buffer (phosphate-buffered saline containing 1% Triton X-100 and 1 mM PMSF) at 4°C for 10 min. Equal quantities of protein were subjected to SDS-PAGE under reducing conditions. Following transfer to immobilon-P transfer membrane, successive incubations with anti-HA, anti-Wnt10b, anti-β-catenin, anti-OPG, anti-phosphorylated-LRP6, anti-LRP6, anti-Axin2, anti-Cyclin D1 or anti-actin, and horseradish peroxidase-conjugated secondary antibody were carried out for 60–120 min at room temperature. The immunoreactive proteins were then detected using the ECL system. Films showing immunoreactive bands were scanned by Kodak Digital Science DC120 Zoom Digital Camera.

MDA-MB-231 tumor = settings: cited from earlier work
Wnt/β-catenin signaling [10] = assay: Super8XTOPFlash luciferase reporter assay, PC-3 cells; format: cell-based, human; settings: 24 h treatment
Experimental: as §1

OPG expression = assay: Western blot of OPG expression in C2C12 cells; format: cell-based, mouse; settings: 48 h, mMesd 0.5 µM
Experimental: as §5

B1: Mesd protein: recombinant mouse Mesd protein, full-length; binds mature LRP5 and LRP6, universal antagonist of LRP5/6 modulators (protein)
chain: ADTPGEATPPPRKKKDIRDYNDADMARLLEQWEKDDDIEEGDLPEHKRPSAPIDFSKLDPGKPESILKMTKKGKTLMMFVTVSGNPTEKETEEITSLWQGSLFNANYDVQRFIVGSDRAIFMLRDGSYAWEIKDFLVSQDRCAEVTLEGQMYPGKGGGSKEKNKTKPEKAKKKEGDPKPRASKEDNRAGSRREDL
modifications: 125I (IODO-GEN method) on the radioligand; unlabeled when used as competitor
Q: Which results are given for B1?
A: TOPFlash activity induced by LRP5, LRP5 plus Wnt3A, LRP5 plus Rspo1 (Wnt/β-catenin signaling [1]): blocked; Wnt reporter luciferase activity induced by Wnt1 (Wnt/β-catenin signaling [2]; HS578T transfected with Wnt1 plasmid): significantly repress; Wnt reporter luciferase activity (Wnt/β-catenin signaling [2]; HS578T, endogenous signaling, indicated concentrations): significantly repressed; cell proliferation (PC-3 cells [3]): displayed inhibitory effect; PC-3 cell proliferation in vitro (PC-3 cells [4]): suppressed; PC-3 tumor growth in vivo (PC-3 tumor): suppressed; Wnt/β-catenin signaling in prostate cancer PC-3 cells (Wnt/β-catenin signaling [5]): markedly inhibited; TOPFlash activity induced by LRP6, LRP6 plus Wnt3A, LRP6 plus Rspo1 (Wnt/β-catenin signaling [6]): blocked; Adriamycin-induced cytotoxicity (HS578T cells [7]; Mesd 2 µM or hMesd (160–197) 2 µM with Adriamycin 0.5 µM, 2 days after pre-treatment): potentiate; inhibition of cell viability (HS578T cells [7]; single agent: Mesd protein 2 µM or Adriamycin 0.5 µM, Mesd 4 days pre-treatment, then 2 days, n = 4): 25%; cell proliferation (HS578T cells [8]): displayed inhibitory effect; Adriamycin-induced cytotoxicity (PC-3 cells [9]): potentiate; Wnt3A-induced endogenous LRP6 phosphorylation (LRP6 phosphorylation): able to suppress; MDA-MB-231 tumor growth (MDA-MB-231 tumor): suppressed; Wnt reporter luciferase activity (Wnt/β-catenin signaling [10]; PC-3, endogenous signaling, indicated concentrations): significantly repressed; Wnt reporter luciferase activity induced by Wnt1 (Wnt/β-catenin signaling [10]; PC-3 transfected with Wnt1 plasmid): significantly repress; OPG expression induced by Rspo1 plus Wnt3A (OPG expression; C2C12, Rspo1 20 ng/ml, Wnt3A CM 2%, mMesd (155–191) 2 µM): repressed; Wnt3A-induced OPG expression (OPG expression; C2C12, Wnt3A CM 5%, peptide at indicated concentrations): able to suppress
